According to doi:10.1101/511345 (bioRxiv, 2019):

Legend:
crystal structure = biological target: the molecule itself; assay: crystal structure
cryo-EM structure = biological target: the molecule itself; assay: cryo-EM structure

B1: Qs IMEF cargo protein, purified alone and crystallised (natural protein)
chain: MKEELDAFHQIFTTTKEAIERFMAMLTPVIENAEDDHERLYYHHIYEEEEQRLSRLDVLIPLIEKFQDETDEGLFSPSNNAFNRLLQELNLEKFGLHNFIEHVDLALFSFTDEERQTLLKELRKDAYEGYQYVKEKLAEINARFDHDYADPHAHHDEHRDHLADMPSAGSSHEEVQPVAHKKKGFTVGSLIQ
stoichiometry N (crystal structure): 2

B2: Quasibacillus thermotolerans (Qs) IMEF encapsulin capsid protein, assembled T = 4 shell (natural protein)
chain: MNKSQLYPDSPLTDQDFNQLDQTVIEAARRQLVGRRFIELYGPLGRGMQSVFNDIFMESHEAKMDFQGSFDTEVESSRRVNYTIPMLYKDFVLYWRDLEQSKALDIPIDFSVAANAARDVAFLEDQMIFHGSKEFDIPGLMNVKGRLTHLIGNWYESGNAFQDIVEARNKLLEMNHNGPYALVLSPELYSLLHRVHKDTNVLEIEHVRELITAGVFQSPVLKGKSGVIVNTGRNNLDLAISEDFETAYLGEEGMNHPFRVYETVVLRIKRPAAICTLIDPEE
stoichiometry N (cryo-EM structure): 240
